B1: TNF receptor-associated factor 3 (Mus musculus), Q60803 (parent)
chain: MESSKKMDAAGTLQPNPPLKLQPDRGAGSVLVPEQGGYKEKFVKTVEDKYKCEKCRLVLCNPKQTECGHRFCESCMAALLSSSSPKCTACQESIIKDKVFKDNCCKREILALQVYCRNEGRGCAEQLTLGHLLVHLKNECQFEELPCLRADCKEKVLRKDLRDHVEKACKYREATCSHCKSQVPMIKLQKHEDTDCPCVVVSCPHKCSVQTLLRSELSAHLSECVNAPSTCSFKRYGCVFQGTNQQIKAHEASSAVQHVNLLKEWSNSLEKKVSLLQNESVEKNKSIQSLHNQICSFEIEIERQKEMLRNNESKILHLQRVIDSQAEKLKELDKEIRPFRQNWEEADSMKSSVESLQNRVTELESVDKSAGQAARNTGLLESQLSRHDQMLSVHDIRLADMDLRFQVLETASYNGVLIWKIRDYKRRKQEAVMGKTLSLYSQPFYTGYFGYKMCARVYLNGDGMGKGTHLSLFFVIMRGEYDALLPWPFKQKVTLMLMDQGSSRRHLGDAFKPDPNSSSFKKPTGEMNIASGCPVFVAQTVLENGTYIKDDTIFIKVIVDTSDLPDP
partner: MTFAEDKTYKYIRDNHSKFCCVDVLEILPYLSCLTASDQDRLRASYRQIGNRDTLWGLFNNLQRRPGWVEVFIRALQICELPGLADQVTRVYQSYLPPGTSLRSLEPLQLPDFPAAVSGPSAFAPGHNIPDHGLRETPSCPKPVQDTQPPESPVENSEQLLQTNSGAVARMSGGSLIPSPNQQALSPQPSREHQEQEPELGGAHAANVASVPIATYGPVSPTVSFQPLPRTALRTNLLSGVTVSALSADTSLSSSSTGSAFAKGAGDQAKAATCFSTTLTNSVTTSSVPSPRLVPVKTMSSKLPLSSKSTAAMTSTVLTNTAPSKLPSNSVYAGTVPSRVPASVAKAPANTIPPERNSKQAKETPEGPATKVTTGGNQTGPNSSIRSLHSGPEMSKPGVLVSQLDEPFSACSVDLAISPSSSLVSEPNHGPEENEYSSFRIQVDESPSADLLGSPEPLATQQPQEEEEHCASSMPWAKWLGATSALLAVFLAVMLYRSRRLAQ
B2: Mitochondrial antiviral-signaling protein (Mus musculus), Q8VCF0 (parent)
chain: B1 partner
partner: B1 chain

Variants of: B1
Conditions: with mavs_mouse Mavs

Variant	effect of a mutation on the interaction
MESSKKMDAAGTLQPNPPLKLQPDRGAGSVLVPEQGGYKEKFVKTVEDKYKCEKCRLVLCNPKQTECGHRFCESCMAALLSSSSPKCTACQESIIKDKVFKDNCCKREILALQVYCRNEGRGCAEQLTLGHLLVHLKNECQFEELPCLRADCKEKVLRKDLRDHVEKACKYREATCSHCKSQVPMIKLQKHEDTDCPCVVVSCPHKCSVQTLLRSELSAHLSECVNAPSTCSFKRYGCVFQGTNQQIKAHEASSAVQHVNLLKEWSNSLEKKVSLLQNESVEKNKSIQSLHNQICSFEIEIERQKEMLRNNESKILHLQRVIDSQAEKLKELDKEIRPFRQNWEEADSMKSSVESLQNRVTELESVDKSAGQAARNTGLLESQLSRHDQMLSVHDIRLADMDLRFQVLETASYNGVLIWKIRDYKRRKQEAVMGKTLSLYSAPFYTGYFGYKMCARVYLNGDGMGKGTHLSLFFVIMRGEYDALLPWPFKQKVTLMLMDQGSSRRHLGDAFKPDPNSSSFKKPTGEMNIASGCPVFVAQTVLENGTYIKDDTIFIKVIVDTSDLPDP [Q442A]	disrupting interaction
MESSKKMDAAGTLQPNPPLKLQPDRGAGSVLVPEQGGYKEKFVKTVEDKYKCEKCRLVLCNPKQTECGHRFCESCMAALLSSSSPKCTACQESIIKDKVFKDNCCKREILALQVYCRNEGRGCAEQLTLGHLLVHLKNECQFEELPCLRADCKEKVLRKDLRDHVEKACKYREATCSHCKSQVPMIKLQKHEDTDCPCVVVSCPHKCSVQTLLRSELSAHLSECVNAPSTCSFKRYGCVFQGTNQQIKAHEASSAVQHVNLLKEWSNSLEKKVSLLQNESVEKNKSIQSLHNQICSFEIEIERQKEMLRNNESKILHLQRVIDSQAEKLKELDKEIRPFRQNWEEADSMKSSVESLQNRVTELESVDKSAGQAARNTGLLESQLSRHDQMLSVHDIRLADMDLRFQVLETASYNGVLIWKIRDYKRRKQEAVMGKTLSLASQPFYTGYFGYKMCARVYLNGDGMGKGTHLSLFFVIMRGEYDALLPWPFKQKVTLMLMDQGSSRRHLGDAFKPDPNSSSFKKPTGEMNIASGCPVFVAQTVLENGTYIKDDTIFIKVIVDTSDLPDP [Y440A]	disrupting interaction

Variants of: B2
Conditions: with traf3_mouse Traf3, Q60803

Variant	effect of a mutation on the interaction
MTFAEDKTYKYIRDNHSKFCCVDVLEILPYLSCLTASDQDRLRASYRQIGNRDTLWGLFNNLQRRPGWVEVFIRALQICELPGLADQVTRVYQSYLPPGTSLRSLEPLQLPDFPAAVSGPSAFAPGHNIPDHGLRETPSCPKPVQDIQPPESPVENSEQLLQTNSGAVARMSGGSLIPSPNQQALSPQPSREHQEQEPELGGAHAANVASVPIATYGPVSPTVSFQPLPRTALRTNLLSGVTVSALSADTSLSSSSTGSAFAKGAGDQAKAATCFSTTLTNSVTTSSVPSPRLVPVKTMSSKLPLSSKSTAAMTSTVLTNTAPSKLPSNSVYAGTVPSRVPASVAKAPANTIPPERNSKQAKETPEGPATKVTTGGNQTGPNSSIRSLHSGPEMSKPGVLVSQLDEPFSACSVDLAISPSSSLVSEPNHGPEENEYSSFRIQVDESPSADLLGSPEPLATQQPQEEEEHCASSMPWAKWLGATSALLAVFLAVMLYRSRRLAQ [T147I]	disrupting interaction

— IntAct's records for PubMed 16858409
